Assay [1] concerns the target T1, IL-2Rβγ-human Fc fusion protein construct (ACRO Biosystems) (human, UniProt P14784 27-239; P31785 23-262, limits assumed).
T1 construct: not shown: human Fc
T1 sequence (looked up) 1: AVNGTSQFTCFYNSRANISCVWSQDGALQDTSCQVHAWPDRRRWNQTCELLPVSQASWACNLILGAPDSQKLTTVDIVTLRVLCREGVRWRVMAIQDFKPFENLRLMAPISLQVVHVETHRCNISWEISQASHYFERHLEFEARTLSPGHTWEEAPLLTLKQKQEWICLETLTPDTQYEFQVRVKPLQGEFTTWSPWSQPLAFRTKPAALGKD
T1 sequence (looked up) 2: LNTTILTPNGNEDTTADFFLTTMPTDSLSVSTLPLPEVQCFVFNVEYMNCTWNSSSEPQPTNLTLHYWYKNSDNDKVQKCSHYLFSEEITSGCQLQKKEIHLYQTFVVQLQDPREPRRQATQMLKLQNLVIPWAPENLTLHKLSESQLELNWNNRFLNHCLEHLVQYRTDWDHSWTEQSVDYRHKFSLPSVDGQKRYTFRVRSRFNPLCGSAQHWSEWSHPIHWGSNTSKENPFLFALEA
Briefly: ELISA; EC50 of rhIL2 (reference) over EC50 of ACT5211 on IL-2Rβγ. The protocol: (§1) IL-2Rα and IL-2R βγ-human Fc fusion protein constructs (ACRO Biosystems) were each expressed and immobilized by anti-Human IgG Fc (abeam), which were then captured on the surface of wells of a microplate. […] Binding was detected using anti-His or anti-PEG antibody conjugated to horse radish peroxidase (HRP) (Genscript), which was incubated with substrate. The quantification of binding was measured with an absorbance-based microplate reader. Data were analyzed by Graphpas prism9 Software.
For orientation: In an ELISA, binding on a coated surface is turned into a signal by an enzyme label.

For assay [2], the target named is T1, IL-2Rβγ-human Fc fusion protein …. Briefly: biosensor kinetics, receptor as ligand on the sensor, IL-2 protein as sample, 1:1 Binding model (legend: Octet QKe; table heads give RU). (In general: Biolayer interferometry detects binding as a change in optical thickness at a sensor tip.)
The target of the next assay is T2, IL2R αβγ.
T2 construct: Cell-free IL-2Rαβγ on a biosensor; not the cell-borne receptors m18 and m19; also called IL-2Rαβγ (ligand on the sensor)
Described as above.

In assay [3] the target is T3, IL-2Rα in a human Fc fusion protein format (ACROBiosystems) (human, UniProt P01589 22-213, limits assumed).
T3 construct: Bought reagent; also called CD25; not shown: human Fc (captured by anti-human IgG Fc)
T3 sequence (looked up): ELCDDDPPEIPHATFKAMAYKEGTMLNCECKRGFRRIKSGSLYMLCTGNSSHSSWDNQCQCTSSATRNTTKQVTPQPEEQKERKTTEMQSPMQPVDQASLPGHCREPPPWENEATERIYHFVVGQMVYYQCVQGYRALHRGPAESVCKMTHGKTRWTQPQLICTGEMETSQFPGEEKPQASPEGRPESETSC
Described as above.

For assay [4], the target named is T3, IL-2Rα in a human Fc fusion protein …. Briefly: BLI (Octet QKe), IL-2Rα-Fc captured on AHC sensors, 1:1 fit. From the text:
(§2) IL-2Rα or IL-2Rβ in a human Fc fusion protein format (ACROBiosystems) were captured on anti-human IgG Fc capture (AHC) sensors. […] Dissociation was detected following transfer of sensors into wells containing buffer alone. Data were collected and analyzed by the Octet User Software. For analysis of the kinetics constants, a 1:1 curve fitting model was used.

For assay [5] the target is unchanged. Briefly: ELISA; EC50 of rhIL2 (reference) over EC50 of ACT5211 on IL-2Rα. As for the experimental part:
as §1

For assay [6], the target named is T1, IL-2Rβγ-human Fc fusion protein …. The experiment in a line: ELISA, receptor-Fc captured by anti-human IgG Fc on the plate, detection with anti-His or anti-PEG antibody-HRP; unit from the axis (Table 4 of the text prints 21.7). As for the experimental part:
as §1

The target in assay [7] is T3, IL-2Rα in a human Fc fusion protein …. The experiment in a line: ELISA, receptor-Fc captured by anti-human IgG Fc on the plate, detection with anti-His or anti-PEG antibody-HRP; unit from the axis (Table 4 of the text prints 5.1). The protocol: as §1
The target of assay [8] is T1, IL-2Rβγ-human Fc fusion protein …. The experiment in a line: ELISA, receptor-Fc captured by anti-human IgG Fc, anti-His or anti-PEG HRP detection. The protocol: as §1
Assay [9] deals with T3, IL-2Rα in a human Fc fusion protein …. The assay is described as above. The protocol:
as §1

Assay [10] has the same target. The experiment in a line: ELISA; α/βγ EC50 ratio of rhIL2 (reference) over that of ACT5211. The protocol:
as §1

The target is the same in assay [11]. The experiment in a line: ELISA; EC50 on IL-2Rα over EC50 on IL-2Rβγ (reference). The protocol:
as §1

Another assay has as its target T4, IL2R β.
T4 construct: also called IL-2Rβ in a human Fc fusion protein format (ACROBiosystems); CD122; not shown: The human IgG Fc carrier and any linker of the ACROBiosystems fusion
T4 chain: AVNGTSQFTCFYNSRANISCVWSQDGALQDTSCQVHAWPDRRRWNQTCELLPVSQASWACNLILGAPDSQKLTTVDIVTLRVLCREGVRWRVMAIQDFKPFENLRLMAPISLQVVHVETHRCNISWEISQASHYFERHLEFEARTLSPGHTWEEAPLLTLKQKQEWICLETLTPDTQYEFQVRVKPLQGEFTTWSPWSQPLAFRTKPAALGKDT
Briefly: biosensor sensorgrams, receptor on the sensor, IL-2 protein in solution (legend: Octet QKe); axes without units, concentrations not given.
From the text: as §2

One molecule from patent publication US20240010697A1 (CYTIMM THERAPEUTICS, published 2024) can be followed below.

As usually defined, the Kd is the concentration at which binding is half-saturated. As usually defined, the koff is the rate constant with which the complex falls apart. What is called kon is a measure of how fast the partners come together. In general, EC50 refers to the concentration at which the effect is half-maximal. Read a high EC50 as weaker potency.

B1: ACT5211, IL-2 mutein Y31C + L18M + L19S (PEG20K) (ligand)
chain: APTSSSTKKTQLQLEHLMSDLQMILNGINNCKNPKLTRMLTFKFYMPKKATELKHLQCLEEELKPLEEVLNLAQSKNFHLRPRDLISNINVIVLELKGSETTFMCEYADETATIVEFLNRWITFSQSIISTLT
modifications: maleimide-PEG 20K on Cys 31
notes: rhIL-2 (C125S) background; also called Y31C - PEG20 + L18M + L19S; Y31C-PEG20+L18ML19S; not shown: His-Tag
Take B1: the “EC50 ratio rhIL2/ACT5211” value in [1] was determined as 0.1; in assay [5], 6.8. Moreover, the Kd was 15.1 nM in assay [2], 0.289 nM with IL2R αβγ, 250 nM in assay [3] and 91.5 nM in assay [4]. In addition, the koff in assay [2] was 0.00147 s⁻¹; in the assay with IL2R αβγ, 0.000761 s⁻¹; in [3] it was 0.139 s⁻¹; in assay [4], 0.0388 s⁻¹. In addition, the kon was 97200 M⁻¹ s⁻¹ in assay [2], 2.63e+06 M⁻¹ s⁻¹ in the assay with IL2R αβγ, 555000 M⁻¹ s⁻¹ in assay [3] and 424000 M⁻¹ s⁻¹ in assay [4]. Also, the half-maximal effective concentration (EC50) in assay [6] amounted to 2.03 ng/mL; in assay [7] it was 5.01 ng/mL; in assay [8], 0.0217 µg/mL; in assay [9], 5.1 ng/mL. Moreover, the “ratio of the (α/βγ) EC50 ratios, rhIL2/ACT5211” value in assay [10] was determined as 67.7. In addition, in assay [11], the “Ratio (α/βγ) of EC50” value worked out at 0.3. Moreover, the binding result with IL2R β is recorded as “no binding (tested: not printed)”.
